The target in test [1] is T1, human insulin-like growth factor-I (human, UniProt P05019 49-118).
T1 construct: mature; In the ELISAs it was coated as a conjugate with methylated BSA; in Biacore it was amine-coupled to a CM-5 chip; also called hIGF-I; IGF-I
Kind of test: SPR (Biacore 2000).

Test [2] concerns the target T2, human insulin-like growth factor-II (human, UniProt P01344 25-91).
T2 construct: also called hIGF-II; IGF-II
Kind of test: SPR (Biacore 2000).

The target of test [3] is T3, partial peptide of hIGF-I corresponding to 1st to 18th (human).
T3 construct: also called p1-18
T3 peptide: GPETLSGAELVDALQFVC
Kind of test: competitive ELISA, methylated BSA-hIGF-I coated, peptide in solution.

Test [4] addresses T4, partial peptide of hIGF-I corresponding to 14th to 30th (human).
T4 construct: also called p14-30
T4 peptide: CLQFVAGDRGFYFNKPTG
Described as above.

The target in test [5] is T5, partial peptide of hIGF-I corresponding to 24th to 35th (human).
T5 construct: also called p24-35
T5 peptide: CYFNKPTGYGSSS
The description is as above.

Test [6] has as its target T6, partial peptide of hIGF-I corresponding to 29th to 41st (human).
T6 construct: also called p29-41
T6 peptide: CTGYGSSSRRAPQT
The test is described as above.

Test [7] addresses T7, partial peptide of hIGF-I corresponding to 36th to 47th (human).
T7 construct: also called p36-47
T7 peptide: RRAPQTGIVDEC
Described as above.

The target of test [8] is T8, partial peptide of hIGF-I corresponding to 41st to 56th (human).
T8 construct: also called p41-56
T8 peptide: CTGIVDEAAFRSADLRR
The description is as above.

Test [9] concerns the target T9, partial peptide of hIGF-I corresponding to 52nd to 70th (human).
T9 construct: also called p52-70
T9 peptide: CDLRRLEMYAAPLKPAKSA
Described as above.

Test [10] has as its target T10, partial peptide of hIGF-I corresponding to 61st to 70th (human).
T10 construct: also called p61-70
T10 peptide: CAPLKPAKSA
The test is described as above.

In test [11] the target is T11, partial peptide of hIGF-I corresponding to 41st to 56th having an inner Cys (human).
T11 construct: also called p41-56C; p41-56c
T11 peptide: CTGIVDECCFRSCDLRR
Described as above.

Test [12] deals with T1, human insulin-like growth factor-I. Kind of test: SPR (Biacore 2000), hIGF-I amine-coupled on CM-5, antibody as analyte, 25 C. On the procedure: (§1) In order to analyze the binding activity of the anti-hIGF rat monoclonal KM1468 to an antigen hIGF-I or hIGF-II, the binding affinities of the anti-hIGF rat monoclonal KM1468, a commercially available anti-hIGF-I antibody sm1.2 and a commercially available anti-hIGF-II antibody S1F2 to hIGF-I and hIGF-II were assayed in the following manner using the biosensor Biacore 2000 (manufactured by Biacore) utilizing surface plasmon resonance. For the diluting samples and as the reaction buffers in measurement, HBS-EP (10 mM HEPES, 150 mM NaCl, 3 mM EDTA, 0.005% Tween 20, pH 7.4) (manufactured by Biacore) was used.
(§2) Using an amine coupling (manufactured by Biacore), hIGF-I or hIGF-II were immobilized at 36.0 pg/mm² or 41.7 pg/mm², respectively, on sensor tip CM-5 (manufactured by Biacore). After 3 types of the antibodies which were diluted in 6 steps in 2-fold serial dilutions starting from 20 μg/ml as analytes, were added at a flow rate of 20 μl/minute for 2 minutes, the dissociation of the analytes was subsequently observed over 5 minutes. The reaction was carried out at 25° C. Based on the reaction curves at various concentrations, association constant Kass and dissociation constant Kdiss were calculated, to calculate the binding constant KA (M⁻¹) of these various antibodies. The binding constant KA is calculated by KA=Kass/Kdiss.

The target in test [13] is T2, human insulin-like growth factor-II. Kind of test: SPR (Biacore 2000), hIGF-II amine-coupled on CM-5, antibody as analyte, 25 C. On the procedure: as §1, §2
A general note: Surface plasmon resonance follows binding to a sensor surface in real time, without labels.

Another test addresses T12, human insulin (human, UniProt P01308 25-54; P01308 90-110).
T12 construct: Bought
Kind of test: competitive ELISA, methylated BSA-hIGF-I or methylated BSA-hIGF-II coated, insulin in solution. The source says: Cross reactivity of the purified anti-hIGF rat antibody KM1468 with hIGF-II and human insulin was examined by the competitive ELISA shown below. As the antigens, hIGF-I (manufactured by Pepro Tech), hIGF-II (manufactured by Pepro Tech) and human insulin (manufactured Wako Pure Chemical Industries) were used.
The methylated BSA-hIGF-I antigen prepared in Reference Example 1(1) or a methylated BSA-hIGF-II antigen prepared in the same manner as in Reference Example 1(1) was immobilized on a plate in accordance with the method shown in Reference Example 1(4), at a concentration of 0.1 μg/ml in the case of the methylated BSA-hIGF-I antigen, or at a concentration of 1.0 μg/ml in the case of the methylated BSA-hIGF-II antigen, KM1468 diluted to 0.6 μg/ml was dispensed at 25 μl/well, and then each of 4-fold serial dilutions of hIGF-I, hIGF-II or human insulin prepared by starting from 20 μg/ml was dispensed at 25 μl/well, mixed and left at room temperature for 1 hour. After the reaction and subsequent washing with Tween-PBS, 1000-fold diluted peroxidase-labeled rabbit anti-rat Ig antibody (manufactured by DAKO) was added at 50 μl/well as the secondary antibody in the case of the anti-hIGF antibody KM1468. […] The results are represented by relative values (%) wherein OD415 when an antibody was added alone was defined as 100.
On the technique in general: ELISA stands for enzyme-linked immunosorbent assay.

T2 sequence (P01344 25-91 limits assumed): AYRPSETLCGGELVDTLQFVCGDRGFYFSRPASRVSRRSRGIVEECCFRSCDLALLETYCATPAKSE
T1 sequence (P05019 49-118): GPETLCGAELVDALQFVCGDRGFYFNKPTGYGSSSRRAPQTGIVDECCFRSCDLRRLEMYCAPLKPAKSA
T12 sequence (P01308 25-54 limits assumed, chain 1 of 2): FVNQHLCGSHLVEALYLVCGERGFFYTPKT
T12 sequence (P01308 90-110 limits assumed, chain 2 of 2): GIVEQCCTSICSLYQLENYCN

B1: anti-hIGF rat monoclonal antibody KM1468 (antibody, rat IgG2b, V domains shown)
VH: EVHLVESGGGLVQPGRSLKLSCAASGFTFSNYYMTWVRQAPTKGLEWVAYISSGGGSTYYRDSVKGRFTISRDNAKSTLYLQMDSLRSEDTATYYCTTEDYGYWFAYWGQGTLVTVSS
VL: EIVLTQSPTTMAASPGEKVTITCRASSSVSYMHWFQQKSGTSPKPWIYGTSKLASGVPDRFSGSGSGTSYSLTISSMEAEDAATYYCLQRSSYPPTFGAGTKLELK
notes: Rat IgG2b, kappa; Hybridoma FERM BP-7978; also called anti-hIGF antibody KM1468; anti-hIGF rat antibody KM1468
For the molecule B1, the figures for the “KA relative to S1F2 (fold)” value in test [1] and in test [2] were roughly 18 fold and roughly 3.6 fold, respectively. Also, the entries for the “KA relative to sm1.2 (fold)” value in test [1] and in test [2] were roughly 42 fold and roughly 120 fold, respectively. In addition, the binding result in test [3], in test [4], in test [5], in test [6], in test [7] and in test [8] was “no binding (tested: 3-fold serial dilutions from 50 µg/mL)” each time. Also, the binding result is on record as “no binding (tested: 3-fold serial dilutions from 50 µg/mL)” in [9], “no binding (tested: 3-fold serial dilutions from 50 µg/mL)” in test [10], “no binding (tested: 3-fold serial dilutions from 50 µg/mL)” in [11] and “no binding” in the test with human insulin. The Ka in test [12] turned out to be 7.86e+09 M⁻¹; in test [13] it was 8.63e+09 M⁻¹.
